# Assay results as given in PMC10350915, “Development of a New Class of CXCR4-Targeting Radioligands Based on the Endogenous Antagonist EPI-X4 for Oncological Applications” (Journal of Medicinal Chemistry, 2023).
# Square brackets hold non-standard residues; d marks the D form. Peptide text beside a SMILES is read from it. * marks the point of attachment. DOTA = O=C(O)CN1CCN(CC(=O)O)CCN(CC(=O)*)CCN(CC(=O)O)CC1
# What was measured:
# Ghost-CXCR4 cells = assay: Cellular uptake and distribution in Ghost-CXCR4 cells; type: cell-based, human; conditions: 37 °C, 60 min
# Experimental: Figure 4 In vitro assessment in Ghost-CXCR4 cells at 37 °C. […] Each experiment was performed in triplicate. Results are means ± SD [% of applied activity] from a minimum of two separate experiments. […] Cellular uptake was interrupted at 15, 30, and 60 min by removing the medium and washing twice with ice-cold PBS. The cell surface-bound radioligand was obtained by washing cells twice with ice-cold glycine buffer (pH 2.8) followed by a collection of the internalized fraction after treating the cells with 1 M sodium hydroxide (NaOH). The activity in each fraction was measured in a γ-counter. […] The results were expressed as a percentage of the applied radioactivity after subtracting the nonspecific uptake.
# [1] = Shelf-life of 177Lu-labeled ligands at room temperature (radio-HPLC); type: physicochemical
# Experimental: The shelf-life of each ^177Lu-labeled ligand was monitored at room temperature up to 24 h after radiolabeling.
# The shelf-lives of ^177Lu-labeled ligands were assessed at room temperature (RT) in the buffer used for labeling, as described above. For the analysis, 5 μL was withdrawn at desired time points (0, 1, 2, 4, and 24 h) from the stock solution and mixed with 50 μL of the Ca-DTPA solution. 20 μL of this mixture was withdrawn and injected in RP-HPLC.
# [2] = type: in vitro ADME; conditions: human, plasma, plasma protein binding (PPB)
# Experimental: (§1) Figure 3 Stability of the ^177Lu ligands in human plasma at 37 °C, expressed as % of intact radioligand over time, assessed by radio-HPLC. The % of plasma protein binding (PPB) after 60 min incubation is provided in parenthesis and it is expressed as the % of radioligand in the protein fraction (pellet) versus the total activity in the plasma. TEXT PRINTED IN THE PICTURE: ^177Lu-1: PPB: 35% | ^177Lu-2: PPB: 22% | ^177Lu-5: PPB: 42% | ^177Lu-6: PPB: 38% | ^177Lu-7: PPB: 39% | ^177Lu-9: PPB: 37%
# For the determination of plasma protein binding (PPB), 100 μL from the plasma incubated with the ^177Lu ligand was removed and measured in a γ-counter (total radioactivity). Protein precipitation and separation followed, as described above. The supernatant and the protein pellet were then measured in a γ-counter. The percentage of plasma protein binding was calculated as the ratio between the protein-bound radioactivity and the total radioactivity in the plasma.
# [3] = type: in vitro ADME, human; conditions: human, plasma
# Experimental: Representative radiochromatograms are provided in Figure S25 for ^177Lu-1, ^177Lu-2, and ^177Lu-7. This included ^177Lu-9 despite its fatty acid chain.
# as §1
# To 1 mL of fresh human plasma, previously equilibrated at 37 °C, 500 pmol (8–10 MBq) of each ^177Lu-labeled ligand was added. The mixture was incubated at 37 °C for different time points (0, 15, 30, 60, and 120 min). At each time point, a 100 μL aliquot was removed and treated with 1.5 excess (v/v) of acetonitrile, to precipitate plasma proteins, followed by centrifugation for 5 min at 3500 rpm. The supernatant was collected and the process of protein precipitation was repeated. Afterward, 100 μL from the supernatant was taken, diluted with water at a ratio of 1:10 (v/v), and injected into radio-HPLC. The radioligand (in)stability was assessed by quantifying the percentage of intact radioligand over time.
# Jurkat xenografts = type: in vivo, mouse; conditions: 1 h p.i., SPECT/CT or PET/CT
# Experimental: The ability of the ^177Lu ligands to target CXCR4 in vivo was assessed by SPECT/CT imaging in Jurkat xenografts. […] 1 h after injection, the remaining amount of radioligand in the body (and vice versa, the washout) was quantified by measuring the total body activity (mouse) in a dose calibrator. The % of the radioligand remaining in the body after 1 h is reported in Figure 6A as % of the remaining activity in reference to the injected activity (100%).
# Figure 6 SPECT/CT images as maximum intensity projections (MIPs) of Jurkat tumor-bearing mice at 1 h p.i. of ^177Lu-labeled ligands (200 pmol, ∼15 MBq). […] (B) Same SPECT/CT images of ^177Lu-1, ^177Lu-2, ^177Lu-5, and ^177Lu-6, adapted in a lower scale. T: tumor, L: liver, and K: kidneys. […] TEXT PRINTED IN THE PICTURE: (A) ^177Lu-1: Remaining Activity (% injected): 6 % | (A) ^177Lu-2: Remaining Activity (% injected): 7 % | (A) ^177Lu-5: Remaining Activity (% injected): 7 % | (A) ^177Lu-6: Remaining Activity (% injected): 8 % | (A) ^177Lu-7: Remaining Activity (% injected): 55 % | (A) ^177Lu-9: Remaining Activity (% injected): 94 %
# The experimental protocol involving animals was approved by the Veterinary Office (Department of Health) of the Cantonal Basel-Stadt (Approval No. 30515) in accordance with the Swiss regulations for animal treatment. Female athymic nude-Foxn1^nu/Foxn1^+ mice (Envigo, The Netherlands), 4–6 weeks old, were injected subcutaneously with 10^7 Jurkat cells in a 200 μL (1:1) mixture of PBS and Matrigel (CorningMatrigelMembrane matrix, Fischer Scientific, Germany) on the right shoulder. The tumors were allowed to grow for 3–4 weeks before commencement of the experiments.
# Nude mice bearing Jurkat xenografts were intravenously injected via the tail vein with ∼15 MBq (200 pmol) of the ^177Lu ligands and 8 MBq (200 pmol) of ^68Ga-7 were euthanized 1 h post injection (p.i.). The radioactivity in the syringe before and after injection was measured followed by measuring the amount of radioactivity remaining in the sacrificed mice. […]
smiles,measurement,setting,value
"CC[C@@H](C)[C@@H](N)C(=O)N[C@@H](CC(C)C)C(=O)N[C@@H](CCCNC(=N)N)C(=O)N[C@@H](Cc1c[nH]c2ccccc12)C(=O)N[C@@H](CO)C(=O)N[C@@H](CCCNC(=N)N)C(=O)N[C@@H](CCCCN)C(=O)N[C@@H](CCCCNC(=O)CN1CCN(CC(=O)O)CCN(CC(=O)O)CCN(CC(=O)O)CC1)C(N)=O [^177Lu-7, metal not drawn] (H-[dI]LRWSRKK(DOTA)-NH2; N-terminus assumed)",cellular uptake (% of the applied activity),Ghost-CXCR4 cells,7.90 ± 1.48%
same,radiochemical purity (%),[1]; 0 h after radiolabeling,98 ± 1%
same,radiochemical purity (%),[1]; 1 h after radiolabeling,95 ± 0%
same,radiochemical purity (%),[1]; 2 h after radiolabeling,94 ± 0%
same,radiochemical purity (%),[1]; 4 h after radiolabeling,88 ± 3%
same,fraction unbound at 60 min,[2],0.61
same,metabolic stability in plasma (in words),[3],high metabolic stability in plasma up to 4 h
same,visualization of CXCR4-expressing tumor xenograft by imaging,Jurkat xenografts,accumulated and visualized the CXCR4-expressing tumor xenograft
